Consider two substances from patent publication US5910570.

Read-outs that look alike come from different tables or passages of the source.

Assay [1] addresses apomucin (deglycosylated mucin) prepared from bovine submaxillary mucin (bovine).
Assay [2] shares this target. The source holds these as a separate data set.
The target of assay [3] is serine containing acceptor peptide ….
The target is the same in assay [4]. The source holds these as a separate data set.

Consider “cloned full-length (membrane bound) bovine GalNAc-transferase expressed in Sf9 cells (enzyme)”, for which the Total activity (U), cell lysate in assay [1] was 16.2 U.

Broadly, the Km is the concentration of substrate that gives half-maximal velocity. “soluble, secreted recombinant bovine GalNAc-transferase (GalNAcTs) expressed in Sf9 cells (enzyme)” yielded a specific activity in assay [2] of 2160 U/mg protein. Moreover, the Km in assay [3] was 3.6 mM; in assay [4], 3.5 mM.
